Test [1] addresses Se-Met substituted mmNAGS/K triple mutant (I106M, I294M, L376M) (Maricaulis maris MCS10). Briefly: crystal structure; orthorhombic form P2(1)2(1)2(1) of mmNAGS/K, four subunits per asymmetric unit; protein incubated beforehand with 25 mM CoA and 100 mM glutamate; native: 25% PEG3350, 200 mM NaCl, 100 mM Bis-Tris pH 6.5; Se-Met mutant: 25% PEG3350, 200 mM sodium malonate pH 7.0.
Test [2] concerns the target Maricaulis maris bifunctional N-acetylglutamate synthase/kinase (mmNAGS/K), wild type (Maricaulis maris MCS10). In words: crystal structure; trigonal form P3(1)21 of native mmNAGS/K, 4.3 A, two subunits per asymmetric unit, molecular replacement with the A-X dimer; 23% PEG400, 100 mM Bis-Tris pH 6.5, 1 mM 5-amino-2,4,6-triiodoisophthalic acid.
For test [3] the target is unchanged. Briefly: cross-linking; 0.15 ug protein with 0.25 ug dimethyl suberimidate in 50 ul of 200 mM triethanolamine pH 8.25, three hours at 298 K; SDS-PAGE (NuPAGE 4-12% Bis-Tris), Coomassie blue.
Test [4] has the same target. In words: crystal structure; orthorhombic form P2(1)2(1)2(1) of mmNAGS/K, four subunits per asymmetric unit; protein incubated beforehand with 25 mM CoA and 100 mM glutamate; native: 25% PEG3350, 200 mM NaCl, 100 mM Bis-Tris pH 6.5; Se-Met mutant: 25% PEG3350, 200 mM sodium malonate pH 7.0.
Test [5] addresses Xanthomonas campestris bifunctional N-acetylglutamate synthase/kinase (xcNAGS/K), recombinant (Xanthomonas campestris). In words: cross-linking; 0.15 ug protein with 0.25 ug dimethyl suberimidate in 50 ul of 200 mM triethanolamine pH 8.25, three hours at 298 K; SDS-PAGE (NuPAGE 4-12% Bis-Tris), Coomassie blue.
Test [6] concerns the target Se-Met substituted xcNAGS/K (hexagonal crystal form) (Xanthomonas campestris). In words: crystal structure; hexagonal form P6(2)22 of Se-Met xcNAGS/K, one subunit per asymmetric unit, molecular replacement with mmNAGS/K; tetramer made by crystallographic symmetry.
Test [7] has as its target T1, mmNAGS/K (Maricaulis maris, UniProt Q0ASS9).
T1 construct: gene Mmar10_0365; full length (AAK domain 1-290, linker Gly291, NAT domain 292-441); E. coli Rosetta 2; homotetramer
T1 sequence (Q0ASS9 1-441): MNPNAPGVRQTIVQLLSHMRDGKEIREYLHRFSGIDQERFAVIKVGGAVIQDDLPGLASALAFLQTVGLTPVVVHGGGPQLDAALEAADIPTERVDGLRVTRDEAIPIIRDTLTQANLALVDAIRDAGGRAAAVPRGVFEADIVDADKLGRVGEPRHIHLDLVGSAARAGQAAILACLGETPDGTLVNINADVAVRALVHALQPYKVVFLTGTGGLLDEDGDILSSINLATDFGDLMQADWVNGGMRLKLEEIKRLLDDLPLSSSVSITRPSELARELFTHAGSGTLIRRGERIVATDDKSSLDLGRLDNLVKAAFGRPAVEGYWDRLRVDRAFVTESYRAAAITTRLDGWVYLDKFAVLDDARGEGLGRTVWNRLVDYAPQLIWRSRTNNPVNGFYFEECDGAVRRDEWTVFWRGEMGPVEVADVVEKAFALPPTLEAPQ
Briefly: X-ray crystallography (native, […] A). The class given is binding. The conditions noted are these: modeled in residual density at NAT domain of subunits A and Y; 100 mM glutamate before crystallization; pH 6.5.

Test [8] concerns the target T1, mmNAGS/K. Briefly: NAGS assay, NAG quantified by LC-MS. Type of test: biochemical. The conditions noted are these: allosteric inhibitor of NAGS activity, not of NAGK activity; 2.5 mM AcCoA, 10 mM L-glutamate, 50 mM Tris-HCl pH 8.5; 293 K in Methods, 310 K in Figure 1 legend.

A word on the stoichiometry N: it is a count of units in the complex or per binding partner. Compound “Se-Met substituted mmNAGS/K triple mutant (I106M, I294M, L376M) (enzyme)” yielded a stoichiometry N in test [1] of 4. On to “Maricaulis maris bifunctional N-acetylglutamate synthase/kinase (mmNAGS/K), wild type (enzyme)”, for which the stoichiometry N in test [2], in test [3] and in test [4] was 4 throughout.

As to “Xanthomonas campestris bifunctional N-acetylglutamate synthase/kinase (xcNAGS/K), recombinant (enzyme)”, the stoichiometry N in test [5] came to 4. With “Se-Met substituted xcNAGS/K (hexagonal crystal form) (enzyme)”, the stoichiometry N in test [6] was found to be 4. With `N[C@@H](CCC(=O)O)C(=O)O` [L-glutamate], in test [7], the “X-ray crystallography (native, 3.1 A)” value is “residual electron density in subunits A and Y at this site that can be modeled as L-glutamate”.

On to `N=C(N)NCCC[C@H](N)C(=O)O` [L-arginine], for which the “fold inhibition of NAGS activity at 1.0 mM” value in test [8] came out at 14 fold.

The record behind these values is paper PMC3236213, “A Novel N-Acetylglutamate Synthase Architecture Revealed by the Crystal Structure of the Bifunctional Enzyme from Maricaulis maris” (PLoS ONE, 2011).
